The values below come from patent publication US20060045876A1 (LUDWIG INSTITUTE FOR CANCER RESEARCH, published 2006).

For assay [1], the target named is T1, recombinant human GM-CSF (human, UniProt P04141 18-144).
T1 construct: also called rhGM-CSF
As to the kind of experiment: SPR (BIAcore 2000), rhGM-CSF on the chip, global fitting of Rmax. On the procedure: Biosensor analyses were carried out using a commercially available, BIAcore 2000, and a carboxymethyldetran coated sensor chip. The chip was derivatized with 1000, 300, or 100 RVs of recombinant human GM-CSF, on channels 1, 2, and 3 of the machine using standard amine coupling chemistry with channel 4 retained as the control blank channel.
After injection, dissociation was monitored by allowing HBS buffer to flow over the chip surface for 5 minutes. Any bound antibody was then eluted, and the chip surface was regenerated, between samples, via injecting 40 μl of 100 mM HCl, pH 2.7, at a rate of 5 μl/min.
For orientation: SPR reads the build-up and loss of mass on a sensor chip optically.

Assay [2] has as its target G250 antigen (UniProt Q16790 38-459). The assay can be described thus: flow cytometry (FACS) on G250 positive tumor cells. A general note: In flow cytometry, cells or beads pass a laser one at a time.

T1 sequence (P04141 18-144 limits assumed): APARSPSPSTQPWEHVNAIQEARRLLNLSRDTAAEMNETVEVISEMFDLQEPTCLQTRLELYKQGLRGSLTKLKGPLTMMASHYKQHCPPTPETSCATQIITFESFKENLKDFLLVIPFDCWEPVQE

B1: chimeric 19/2 anti-human GM-CSF monoclonal antibody (antibody, V domains shown)
VH: EVQLQQSGPELVKPGASVKISCKASGYTFTDYNIHWVKQSHGKSLDWIGYIAPYSGGTGYNQEFKNRATLTVDKSSSTAYMELRSLTSDDSAVYYCARRDRFPYFDYWGQGTTLRVSS
VL: DIVMIQSQKFVSTSVGDRVNITCKASQNVGSNVAWLQQKPGQSPKTLIYSASYRSGRVPDRFTGSGSGTDFILTITTVQSEDLAEYFCQQFNRSPLTFGSGTKLELKR
notes: made in CHO DG44 cells; also called chimeric 19/2 antibody; ch19/2
By koff is commonly meant a measure of how fast the partners let go of each other. B1: in assay [1], the Ka is 2.69e+10 M⁻¹ and the off-rate constant (koff) came out at 1.9e-05 s⁻¹.

B2: chimeric G250 antibody (antibody, V domains shown)
VH: DVKLVESGAALVKLGGSLKLSCAASGFTFSNYYMSWVRQTPEKRLELVAAINSDGGITYYLDTVKGRFTISRDNAKNTLYLQMSSLKSEDTALFYCARHRSGYFSMDYWGQGTSVTVSS
VL: DIVMTQSQRFMSTTVGDRVSITCKASQNVVSAVAWYQQKPGQSPKLLIYSASNRYTGVPDRFTGSGSGTDFTLTISNMQSEDLADFFCQQYSNYPWTFGGGTKLEIKR
notes: Used as positive control in FACS; Its making is not described apart from this
B2: the binding result in assay [2] is “binds”.
